This note sets out measurements from patent US20220220204A1 (published 2022).

The EC50 is the concentration at which the effect is half-maximal. Read a high EC50 as a need for much substance.

Like-named read-outs stand apart in the source and are kept apart here.

What all share (test): FACS binding
(In general: A flow cytometer gives signals particle by particle.)

In test [1] the target is T1, PD-L1 expressed on CHO-K1 cells (UniProt Q9NZQ7 19-290).
Test [2] deals with T1, PD-L1 expressed on CHO-K1 cells. This is another data set of the same source.
The target in test [3] is T2, LAG-3 expressed on CHO-K1 cells (UniProt P18627 23-525).
T2 chain: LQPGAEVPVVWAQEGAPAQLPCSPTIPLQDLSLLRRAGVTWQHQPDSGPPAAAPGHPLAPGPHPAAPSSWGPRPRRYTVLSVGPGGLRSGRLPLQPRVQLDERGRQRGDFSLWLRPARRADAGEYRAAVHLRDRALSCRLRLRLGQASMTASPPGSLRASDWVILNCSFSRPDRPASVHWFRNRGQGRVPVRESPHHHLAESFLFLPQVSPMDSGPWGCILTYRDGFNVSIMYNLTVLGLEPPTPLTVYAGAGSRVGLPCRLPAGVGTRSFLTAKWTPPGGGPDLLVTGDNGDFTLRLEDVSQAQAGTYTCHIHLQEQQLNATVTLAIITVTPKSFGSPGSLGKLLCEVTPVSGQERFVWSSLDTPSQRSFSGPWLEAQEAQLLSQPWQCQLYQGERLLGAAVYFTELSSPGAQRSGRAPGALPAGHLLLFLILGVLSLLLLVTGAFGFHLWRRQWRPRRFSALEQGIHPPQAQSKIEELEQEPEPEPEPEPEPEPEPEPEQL

The target of test [4] is T2, LAG-3 expressed on CHO-K1 cells.

T1 sequence (Q9NZQ7 19-290): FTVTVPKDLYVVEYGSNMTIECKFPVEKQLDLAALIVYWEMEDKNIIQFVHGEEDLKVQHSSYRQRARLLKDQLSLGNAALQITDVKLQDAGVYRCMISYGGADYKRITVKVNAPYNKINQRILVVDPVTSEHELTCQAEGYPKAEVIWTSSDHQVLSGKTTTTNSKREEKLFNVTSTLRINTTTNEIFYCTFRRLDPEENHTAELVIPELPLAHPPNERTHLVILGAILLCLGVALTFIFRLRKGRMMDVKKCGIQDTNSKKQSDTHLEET

B1: PDL1HCv1 (antibody, V domains shown)
VH: EVQLVQSGAEVKKPGASVKVSCKASGYIFTGYGITWVRQAPGQGLEWMGEIFPRRVQTYYSEKFKGRVTMTTDTSTSTAYMELRSLRSDDTAVYYCARDYDPYFALDYWGQGTTVTVSS
VL: DIQMTQSPSSLSASVGDRVTITCRASQDVSTAVDWYQQKPGKAPKLLIYSASYRYTGVPDRFSGSGSGTDFTFTISSLQPEDIATYYCQQHYSIPFTFGQGTKLEIKR
On to B1, for which the EC50 in test [1] amounted to 0.651 nM; in test [2] it was 0.205 nM; in test [3] it was 0.0376 nM.

B2: PDL1HCv5 (antibody, V domains shown)
VH: EVQLVQSGAEVKKPGASVKVSCKASGYIFTGYGITWVRQAPGQGLEWMGEIFPRRVQTYYSEKFKGRVTMTADTSTSTAYMELRSLRSDDTAVYYCARDYDPYFALDYWGQGTTVTVSS
VL: DIQMTQSPSSLSASVGDRVTITCRASQDVSTAVDWYQQKPGKAPKLLIYSASYRYTGVPDRFSGSGSGTDFTFTISSLQPEDIATYYCQQHYSIPFTFGQGTKLEIKR
In the case of B2, the EC50 worked out at 8.42 nM in test [4] and 0.311 nM in test [1].
